# This sample holds only a part of the variants without activity.
# B1: TPR 5TU (parent)
# chain: GGAUCUUCUCGAUCUAACAAAAAAGACAAAUCUGCCACAAAGCUUGAGAGCAUCUUCGGAUGCAGAGGCGGCAGCCUUCGGUGGCGCGAUAGCGCCAACGUUCUCAACUAUGACACGCAAAACGCGUGCUCCGUUGAAUGGAGUUUAUCAUG
# Variants of: B1
# Experiment: polymerase ribozyme fitness, log enrichment relative to wild type (log ratio); higher = more active; in vitro selection for triplet polymerase activity
# Method in brief: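 Fitness is a logarithmic measure of how a genotype enriched relative to the wild type, with replicate averages weighted by inverse variance. The logarithm uses base 2, and enrichment came from Illumina sequencing of input and output libraries. Those libraries were PCR-built, transcribed mutants of each subunit of a heterodimeric triplet polymerase ribozyme, passed through one triplicate in vitro selection round that included frozen incubation at −7 °C, gel excision of extended constructs and streptavidin-bead capture. Genotypes were kept only if they had ≥10 input reads and ≥1 read per output.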
row,Variant,polymerase ribozyme fitness (log ratio)
1,C35U G50U G83U C87A A115C C118G,≤ -4.2
2,C35U C51G G71U C131U,≤ -4.2
3,C35A A91G C105U,-4.17
4,G34C C51G C57U G83C,≤ -4.2
5,U31G A40U G48A G84A C87U A119U,≤ -4.2
6,C35A A41C C57U C85G,≤ -4.2
7,C32G C93G,≤ -4.2
8,U33G G80C C85G,≤ -4.2
9,G34U A60C G62A G70A G83C C95G U104C,≤ -4.2
10,C32A A37C C95U,≤ -4.2
11,C35A A60U U77A U82A G83C A97U G126A,-3.93
12,U33A C43U A60U C93A C96U U151C G152A,≤ -4.2
13,U31C A52C C54U U139C G143U,≤ -4.2
14,C32U C87G A142U,≤ -4.2
15,U33C C85U A119G,-3.71
16,U33A A60C G74A A137C A150U,≤ -4.2
17,C32G G46A A52G U53A A60U C87A A89U A142U,≤ -4.2
18,U33G C54U C96G A147U,-3.24
19,U33G A49U A91G G152A,≤ -4.2
20,C35U A91G G117U A142U,≤ -4.2
21,C35G C96U,-4.18

row,Variant,polymerase ribozyme fitness (log ratio)
1,C35U C63A,-0.573
2,C35U C43A A60C U101G,≤ -4.2
3,U33A G83A C95U U151C,≤ -4.2
4,G34C A39G A49C A97U,≤ -4.2
5,G34A A66U C75U A137G,≤ -4.2
6,C35U A52G,-0.53
7,C35G C87U,-4.18
8,C35U A41C U56A C76U G88U C105U,≤ -4.2
9,C32G C35U C72G A106C,≤ -4.2
10,C32A C87A,≤ -4.2
11,C35G U82A G94U G126A A138U,≤ -4.2
12,U33G A49C C75G G92A U101G C105A,-4.15
13,U31C U45A A97U G117A,-4.09
14,U31G G81U C87G U104G G128C,≤ -4.2
15,C35G U55A C85U,≤ -4.2
16,U33C A122G U127G,≤ -4.2
17,U33C C36U C54A C72U G84U C85A U148G,≤ -4.2
18,C32U A52G U55G G94C,-3.43
19,G34C A52G G84A U109A C125U,≤ -4.2
20,C32G U55A C79A C116G C149A,≤ -4.2
21,U33G G58C A120G G133C,-3.81

row,Variant,polymerase ribozyme fitness (log ratio)
1,C35G C75U A91U U148C A150G,≤ -4.2
2,C35G C95G A97C C114G G124A A138G,≤ -4.2
3,C35U G42C C76A C93A G117C,≤ -4.2
4,C32U U44A G50U U78C G83U A120G,≤ -4.2
5,C35A U53A G62A,≤ -4.2
6,C35G C63A C93U,-4.16
7,C35U A49G U53A C87U A89C C95U C132A A142C,≤ -4.2
8,C32U U55A,-1.62
9,C32U U55G,-1.52
10,C32A C54U C93A A110G A137G G140C,-4.17
11,U31C G71A G86C C118A U151G,≤ -4.2
12,C35U C95A,-0.608
13,C35A G70A C79U G81A,≤ -4.2
14,U31C A52C U56A U82C A107U,≤ -4.2
15,C35U G59C,0.0057
16,U31G C57A G136A G140A U146A,-3.1
17,C35U C57G G86U G133A,-3.89
18,C35U G80A A91G G136A,-3.57
19,C32A A37C,≤ -4.2
20,G34C U45A G50C A52C U53A C76A G81A G92A C105G,≤ -4.2
21,C32G U56A C57A C114G,-4.19

row,Variant,polymerase ribozyme fitness (log ratio)
1,C35U G58U G74A G80U G83A C116G,≤ -4.2
2,C35U A40U U55A C99A U101G G152A,≤ -4.2
3,U31C A97G U135C U146C,-1.76
4,U31C G34A U78C G83C U145G,≤ -4.2
5,C32U G50U C95A C131U G143A U151C,≤ -4.2
6,C35U A60G G136U,-3.08
7,C35G U55A G58A G86U A147U,-4.06
8,U33G G124A U134G,≤ -4.2
9,C35A C76U,-3.95
10,C35A C76A,-4.08
11,C32G A39G G58U G143C,-4.1
12,C35G C36G G128U,≤ -4.2
13,C35U C54G C85A,-3.81
14,C35A U134C,-3.61
15,G34A A39U C96A U135C G140C,≤ -4.2
16,C35A A107U C108U,-3.61
17,C32U G94U C116G,-3.95
18,U31C G143A,0.14
19,C32U U82C,-1.74
20,U33A A49C G50C C76A C85G A138U U151C,≤ -4.2
